Assay results reported in patent US10081665B2, “Peptides and combination of peptides for use in immunotherapy against various tumors” (immatics biotechnologies GmbH, priority 2015, dated 2018).

Molecular target: HLA-A*02:01 (Homo sapiens, UniProt P04439, D140Y/D185E/D98H/E176V/E277Q/G131W/G231S/I119V/I121R/I166T/I218V/L300P/L318F/N151K/N90K/P208A/P217A/Q86G/Q94H/R138H/R169H/T345S)
Assay: MHC binding assay (UV-ligand exchange, beta2m ELISA)
Details: binding to HLA-A*02:01, β2m ELISA
Description: Candidate peptides for T cell based therapies according to the present invention were further tested for their MHC binding capacity (affinity). The individual peptide-MHC complexes were produced by UV-ligand exchange, where a UV-sensitive peptide is cleaved upon UV-irradiation, and exchanged with the peptide of interest as analyzed. Only peptide candidates that can effectively bind and stabilize the peptide-receptive MHC molecules prevent dissociation of the MHC complexes. To determine the yield of the exchange reaction, an ELISA was performed based on the detection of the light chain (β2m) of stabilized MHC complexes. The assay was performed as generally described in Rodenko et al. (Rodenko et al., 2006).
96 well MAXISorp plates (NUNC) were coated over night with 2 ug/ml streptavidin in PBS at room temperature, washed 4× and blocked for 1 h at 37° C. in 2% BSA containing blocking buffer. Refolded HLA-A*02:01/MLA-001 monomers served as standards, covering the range of 15-500 ng/ml. Peptide-MHC monomers of the UV-exchange reaction were diluted 100 fold in blocking buffer. Samples were incubated for 1 h at 37° C., washed four times, incubated with 2 ug/ml HRP conjugated anti-82m for 1 h at 37° C., washed again and detected with TMB solution that is stopped with […]. Absorption was measured at 450 nm. Candidate peptides that show a high exchange yield (preferably higher than 50%, most preferred higher than 75%) are generally preferred for a generation and production of antibodies or fragments thereof, and/or T cell receptors or fragments thereof, as they show sufficient avidity to the MHC molecules and prevent dissociation of the MHC complexes.

Substance	Peptide exchange (MHC class I binding score, peptide exchange yield)
26 (VLDGKVAVV; listed as Homo sapiens) [compound 26]	+++ (≥50 = +++)
122 (SIIDTELKV; listed as Homo sapiens) [compound 122]	+++ (≥50 = +++)
228 (SLLELDGINLRL; listed as Homo sapiens) [compound 228]	+++ (≥50 = +++)
95 (KLIDEDEPLFL; listed as Homo sapiens) [compound 95]	+++ (≥50 = +++)
76 (FTAEFLEKV; listed as Homo sapiens) [compound 76]	+++ (≥50 = +++)
146 (VVAAHLAGA; listed as Homo sapiens) [compound 146]	++ (≥20% = ++)
169 (ALADLSVAV; listed as Homo sapiens) [compound 169]	+++ (≥50 = +++)
199 (SVADLAHVL; listed as Homo sapiens) [compound 199]	++ (≥20% = ++)
7 (ALLQALMEL; listed as Homo sapiens) [compound 7]	+++ (≥50 = +++)
84 (FLLEREQLL; listed as Homo sapiens) [compound 84]	++++ (≥75% = ++++)
235 (SLLNQPKAV; listed as Homo sapiens) [compound 235]	++ (≥20% = ++)
92 (RLFEEVLGV; listed as Homo sapiens) [compound 92]	++++ (≥75% = ++++)
144 (FLISQTPLL; listed as Homo sapiens) [compound 144]	+++ (≥50 = +++)
229 (YLYELEHAL; listed as Homo sapiens) [compound 229]	++ (≥20% = ++)
176 (VQSGLRILL; listed as Homo sapiens) [compound 176]	++ (≥20% = ++)
245 (ALLEEEEGV; listed as Homo sapiens) [compound 245]	++ (≥20% = ++)
106 (VLLGSVVIFA; listed as Homo sapiens) [compound 106]	++ (≥20% = ++)
285 (MLLDTVQKV; listed as Homo sapiens) [compound 285]	+++ (≥50 = +++)
21 (YLMDDFSSL; listed as Homo sapiens) [compound 21]	+++ (≥50 = +++)
16 (SLADLSLLL; listed as Homo sapiens) [compound 16]	+++ (≥50 = +++)
168 (VIFEGEPMYL; listed as Homo sapiens) [compound 168]	+++ (≥50 = +++)

Substance	Peptide exchange (MHC class I binding score, peptide exchange yield)
200 (IMPTFDLTKV; listed as Homo sapiens) [compound 200]	+++ (≥50 = +++)
72 (VLSTRVTNV; listed as Homo sapiens) [compound 72]	++ (≥20% = ++)
96 (ALDTTRHEL; listed as Homo sapiens) [compound 96]	++ (≥20% = ++)
184 (ALDSTIAHL; listed as Homo sapiens) [compound 184]	++ (≥20% = ++)
139 (IILENIQSL; listed as Homo sapiens) [compound 139]	+++ (≥50 = +++)
231 (LLDDIFIRL; listed as Homo sapiens) [compound 231]	+++ (≥50 = +++)
220 (ALSELERVL; listed as Homo sapiens) [compound 220]	+++ (≥50 = +++)
213 (ILAVDGVLSV; listed as Homo sapiens) [compound 213]	+++ (≥50 = +++)
237 (ALLEQTGDMSL; listed as Homo sapiens) [compound 237]	+++ (≥50 = +++)
100 (ALQSFEFRV; listed as Homo sapiens) [compound 100]	+++ (≥50 = +++)
110 (QIQGQVSEV; listed as Homo sapiens) [compound 110]	++ (≥20% = ++)
247 (NLLIDDKGTIKL; listed as Homo sapiens) [compound 247]	++ (≥20% = ++)
154 (AIIKEIQTV; listed as Homo sapiens) [compound 154]	++ (≥20% = ++)
13 (RLHDENILL; listed as Homo sapiens) [compound 13]	+++ (≥50 = +++)
98 (FVQEKIPEL; listed as Homo sapiens) [compound 98]	+++ (≥50 = +++)
67 (FLIENLLAA; listed as Homo sapiens) [compound 67]	+++ (≥50 = +++)
79 (TVLEEIGNRV; listed as Homo sapiens) [compound 79]	++ (≥20% = ++)
219 (GVVPTIQKV; listed as Homo sapiens) [compound 219]	++ (≥20% = ++)
180 (RLYEEEIRI; listed as Homo sapiens) [compound 180]	+++ (≥50 = +++)
225 (FLPQPVPLSV; listed as Homo sapiens) [compound 225]	+++ (≥50 = +++)
114 (LLFPSDVQTL; listed as Homo sapiens) [compound 114]	++ (≥20% = ++)

Substance	Peptide exchange (MHC class I binding score, peptide exchange yield)
91 (LLPSIFLMV; listed as Homo sapiens) [compound 91]	++ (≥20% = ++)
5 (GLVDIMVHL; listed as Homo sapiens) [compound 5]	+++ (≥50 = +++)
207 (KLFETVEEL; listed as Homo sapiens) [compound 207]	+++ (≥50 = +++)
284 (KLMDPGSLPPL; listed as Homo sapiens) [compound 284]	++ (≥20% = ++)
212 (MTLSEIHAV; listed as Homo sapiens) [compound 212]	++ (≥20% = ++)
53 (AQHLSTLLL; listed as Homo sapiens) [compound 53]	+ (≥10% = +)
132 (ALLNNVIEV; listed as Homo sapiens) [compound 132]	+++ (≥50 = +++)
88 (LLLPLELSLA; listed as Homo sapiens) [compound 88]	+++ (≥50 = +++)
87 (KLLSLLEEA; listed as Homo sapiens) [compound 87]	+++ (≥50 = +++)
28 (IKVTDPQLLEL; listed as Homo sapiens) [compound 28]	++ (≥20% = ++)
153 (KLVELEHTL; listed as Homo sapiens) [compound 153]	+++ (≥50 = +++)
208 (HLNNDRNPL; listed as Homo sapiens) [compound 208]	++ (≥20% = ++)
42 (KQMSISTGL; listed as Homo sapiens) [compound 42]	++ (≥20% = ++)
58 (HLLGEGAFAQV; listed as Homo sapiens) [compound 58]	+++ (≥50 = +++)
273 (SLNKQIETV; listed as Homo sapiens) [compound 273]	++ (≥20% = ++)
278 (VLEDKVLSV; listed as Homo sapiens) [compound 278]	+++ (≥50 = +++)
243 (GLAEFQENV; listed as Homo sapiens) [compound 243]	++ (≥20% = ++)
190 (SLSTELFKV; listed as Homo sapiens) [compound 190]	+++ (≥50 = +++)
224 (LLFDWSGTGRADA; listed as Homo sapiens) [compound 224]	+++ (≥50 = +++)
108 (FIANLPPELKA; listed as Homo sapiens) [compound 108]	+++ (≥50 = +++)
